The experiment has as its target HLA-A2 molecule (a product of the HLA-A*0201 gene) (human), A*02:0.

For YLEENPSAG (modifications not checked) [SEQ ID NO: 26 peptide], the -log Kd (Binding Experiment Data) is 4.9 -log Kd.
On to IFLARSALI (modifications not checked) [SEQ ID NO: 35 peptide], for which the -log Kd (Binding Experiment Data) is 5.94 -log Kd.
Under YLEEHPSAG (modifications not checked) [SEQ ID NO: 21 peptide] stands 5.08 -log Kd; under WMACHSAAF (modifications not checked) [SEQ ID NO: 30 peptide], 5.79 -log Kd.

Source of the values: patent US20090023895A1.
